A short description of the data set: immunoblot, full-length as % of total β1AR, CHO-Pro5. The conditions noted are these: glycan lost. Background: A western blot detects proteins with antibodies after separation by electrophoresis.

In turn, β1-adrenergic receptor (β1AR): S41A showed an other: N-terminal proteolytic cleavage, other: decrease in full-length β1AR (control: WT-β1AR) of 56.8%. The same measure, in the same setting: to β1-adrenergic receptor (β1AR): S37A belongs 21.7%.

Where the note is “control: 31H32A/52A53A-β1AR”, “β1-adrenergic receptor (β1AR): S41A in 31H32A/52A53A backbone” gave an other: N-terminal proteolytic cleavage, other: decrease in full-length β1AR of 69.7%.

Values taken from PMC8068644.
